# According to patent publication US20190309079A1 (Regeneron, published 2019):
# T1: human LEPR Ig-CRH2-FNIII-MMH (human, UniProt P48357 330-839, limits assumed)
# T1 construct: domain: Ig-CRH2-FNIII
# T1 sequence (looked up): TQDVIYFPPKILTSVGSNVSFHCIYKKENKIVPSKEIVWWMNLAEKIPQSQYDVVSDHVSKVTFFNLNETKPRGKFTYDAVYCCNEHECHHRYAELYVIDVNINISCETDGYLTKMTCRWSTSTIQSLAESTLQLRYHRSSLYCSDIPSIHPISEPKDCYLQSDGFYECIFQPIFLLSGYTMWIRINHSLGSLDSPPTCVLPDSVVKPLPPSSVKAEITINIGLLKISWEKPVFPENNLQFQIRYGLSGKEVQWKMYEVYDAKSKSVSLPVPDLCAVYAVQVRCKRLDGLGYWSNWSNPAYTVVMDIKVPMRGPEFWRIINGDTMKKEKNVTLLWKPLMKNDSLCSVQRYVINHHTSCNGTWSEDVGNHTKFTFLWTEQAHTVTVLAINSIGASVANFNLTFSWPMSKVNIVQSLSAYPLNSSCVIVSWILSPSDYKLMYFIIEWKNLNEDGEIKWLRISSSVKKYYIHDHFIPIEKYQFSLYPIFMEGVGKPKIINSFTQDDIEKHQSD
# T2: human LEPR CRH1 (D1,D2)-MMH (human, UniProt P48357 22-339, limits assumed)
# T2 construct: domain: CRH1 (D1,D2)
# T2 sequence (looked up): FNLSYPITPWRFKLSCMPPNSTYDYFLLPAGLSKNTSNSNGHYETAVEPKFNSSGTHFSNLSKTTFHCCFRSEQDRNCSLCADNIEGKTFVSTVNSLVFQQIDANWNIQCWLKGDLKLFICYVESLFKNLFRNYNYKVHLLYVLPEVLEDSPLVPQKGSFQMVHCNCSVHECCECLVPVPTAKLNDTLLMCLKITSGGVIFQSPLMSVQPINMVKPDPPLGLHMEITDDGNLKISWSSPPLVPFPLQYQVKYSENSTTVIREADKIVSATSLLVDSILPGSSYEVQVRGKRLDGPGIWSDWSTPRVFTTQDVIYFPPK
# T3: human LEPR Ig (D3)-MMH (human, UniProt P48357 340-427, limits assumed)
# T3 construct: domain: Ig (D3)
# T3 sequence (looked up): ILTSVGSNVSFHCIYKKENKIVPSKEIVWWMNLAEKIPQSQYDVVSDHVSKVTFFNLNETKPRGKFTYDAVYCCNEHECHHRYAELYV
# T4: human LEPR FNIII-MMH (human, UniProt P48357 636-839, limits assumed)
# T4 construct: domain: FNIII
# T4 sequence (looked up): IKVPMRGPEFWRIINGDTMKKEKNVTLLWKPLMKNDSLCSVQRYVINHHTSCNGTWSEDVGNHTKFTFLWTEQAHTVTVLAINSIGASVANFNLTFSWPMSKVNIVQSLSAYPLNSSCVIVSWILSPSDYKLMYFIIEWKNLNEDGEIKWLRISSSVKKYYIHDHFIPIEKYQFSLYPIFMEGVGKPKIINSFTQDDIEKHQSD
# T5: human LEPR CRH1-Ig (D2,D3)-MMH (human, UniProt P48357 230-427, limits assumed)
# T5 construct: domain: CRH1-Ig (D2,D3)
# T5 sequence (looked up): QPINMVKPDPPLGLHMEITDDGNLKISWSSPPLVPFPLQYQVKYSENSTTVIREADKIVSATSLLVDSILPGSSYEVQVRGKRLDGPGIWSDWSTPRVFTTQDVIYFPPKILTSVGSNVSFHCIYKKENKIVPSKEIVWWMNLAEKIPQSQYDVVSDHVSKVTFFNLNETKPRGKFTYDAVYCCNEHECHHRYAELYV
# T6: human LEPR CRH1 (D1)-MMH (human, UniProt P48357 22-229, limits assumed)
# T6 construct: domain: CRH1 (D1)
# T6 sequence (looked up): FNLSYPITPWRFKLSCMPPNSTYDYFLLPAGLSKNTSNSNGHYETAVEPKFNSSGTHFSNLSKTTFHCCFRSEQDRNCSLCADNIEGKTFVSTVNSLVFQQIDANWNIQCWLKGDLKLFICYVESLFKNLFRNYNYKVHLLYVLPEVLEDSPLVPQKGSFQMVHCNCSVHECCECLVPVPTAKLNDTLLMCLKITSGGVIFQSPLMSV
# T7: human LEPR CRH2-MMH (human, UniProt P48357 428-634, limits assumed)
# T7 construct: domain: CRH2
# T7 sequence (looked up): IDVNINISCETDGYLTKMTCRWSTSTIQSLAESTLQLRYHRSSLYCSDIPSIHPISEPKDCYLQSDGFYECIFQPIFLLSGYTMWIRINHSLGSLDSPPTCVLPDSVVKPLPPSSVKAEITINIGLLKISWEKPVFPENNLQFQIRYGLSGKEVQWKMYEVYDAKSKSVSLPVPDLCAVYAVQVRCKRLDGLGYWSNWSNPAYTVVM
# B1: H4H18445P2 (antibody, human IgG4, V domains shown)
# VH: QVQLQESGPGLVKPSQTLSLTCTVSGGSISSGGDYWSWIRQLPGKGLEWIGYIYYSGSAYYNPSLKSRGTISIDTSKNQFSLKLTSVTAADTAVYFCVKLRFLEWFLGGWFGPWGQGTLVTVSS
# VL: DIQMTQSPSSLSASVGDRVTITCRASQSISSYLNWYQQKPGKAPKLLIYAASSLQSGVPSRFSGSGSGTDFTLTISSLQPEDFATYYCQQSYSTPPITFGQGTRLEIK
# notes: human IgG4 Fc
# B2: H4H18449P2 (antibody, human IgG4, V domains shown)
# VH: EVQLVESGGGLVQPGGSLRLSCVASGFTFNKYDMHWVRQTTGKGLEWVSGIDTDGDTYYPGSVKGRFTISRENAENSLYLQMNGLRVGDTAVYYCARWPWSGFYGAFDIWGQGTMVTVSS
# VL: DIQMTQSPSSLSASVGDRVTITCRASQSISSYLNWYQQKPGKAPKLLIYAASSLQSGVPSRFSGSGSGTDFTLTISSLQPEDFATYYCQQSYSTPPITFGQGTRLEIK
# notes: human IgG4 Fc
# B3: H4H18438P2 (antibody, V domains shown)
# VH: QVQLVESGGGVVQPGRSLRLSCAASGFSFNTYGMHWVRQAPGKGLEWVTIIWYDGSIKYYADSVKGRFTISRDNSKNTLYLQMNSLRAEDTAVYYCARGGYSGYLYFDYWGQGTLVTVSS
# VL: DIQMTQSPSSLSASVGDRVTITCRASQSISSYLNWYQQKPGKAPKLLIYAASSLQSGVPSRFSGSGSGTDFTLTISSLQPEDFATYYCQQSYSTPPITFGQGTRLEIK
# B4: H4H18417P2 (antibody, V domains shown)
# VH: QVQLVESGGGVVQPGRSLRLSCAASGFTFSTYGMHWVRQAPGKGLEWVSVISYDESNKYYADSVKGRFTISRDNSKNALYLQMNSLRNEDTAVYYCARDRPFGLVTGWFDPWGQGTLVTVSS
# VL: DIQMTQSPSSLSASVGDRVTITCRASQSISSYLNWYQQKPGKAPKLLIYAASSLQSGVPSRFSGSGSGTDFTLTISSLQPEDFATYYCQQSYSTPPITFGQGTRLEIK
# B5: H4H16650P2 (antibody, V domains shown)
# VH: QVQLVESGGGVVQPGKSLRLSCVASGFTFSSDAMYWVRQAPGKGLEWVAVIYYDGNYQYYEDSVKGRFTISRDNSQNTLDLQMNSLRVDDTAVYFCARLNWDYWYLDLWGRGTLVTVSS
# VL: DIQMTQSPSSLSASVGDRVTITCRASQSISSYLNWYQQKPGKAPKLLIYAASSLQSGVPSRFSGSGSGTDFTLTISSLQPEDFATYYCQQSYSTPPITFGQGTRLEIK
# B6: H4H16679P2 (antibody, V domains shown)
# VH: QVQLVESGGGVVQPGRSLRLSCTASGFTFSSYAMYWVRQAPGKGLEWVSVIYYDGSYKYYADSVKGRFTISRDNSKNTLYLQMDSLRAEDTAVYYCASYNWNYWYFDFWGRGTLVTVSS
# VL: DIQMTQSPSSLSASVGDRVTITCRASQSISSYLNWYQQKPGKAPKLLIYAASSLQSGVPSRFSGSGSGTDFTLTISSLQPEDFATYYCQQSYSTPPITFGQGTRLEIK
# B7: H4H17321P2 (antibody, V domains shown)
# VH: QVQLVESGGGVVQPGRSLRLSCEASGFSSSDNAMYWVRQAPGKGLEWVSVIYHDGSYKYYEDSVKGRFTIARDNSKNTLYLQMNSLRAEDTAVYYCARYNWNHWYFDVWGRGTLVTVSS
# VL: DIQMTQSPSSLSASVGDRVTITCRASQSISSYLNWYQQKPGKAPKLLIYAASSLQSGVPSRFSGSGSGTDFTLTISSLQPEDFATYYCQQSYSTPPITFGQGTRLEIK
# B8: H4H17319P2 (antibody, V domains shown)
# VH: QVQLVESGGSVVQPGRSLRLSCAASGFTFSTYAMYWVRQTPGKGLEWVAVLYSDGSNKYYIDSVKGRFTISRDTSTNTLYLQMSSLRADDSALYYCARLNWDYWYFDLWGRGTLVTVSS
# VL: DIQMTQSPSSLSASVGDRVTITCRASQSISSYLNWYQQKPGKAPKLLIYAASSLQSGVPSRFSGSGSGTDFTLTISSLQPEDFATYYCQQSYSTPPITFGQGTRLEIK
# notes: also called REGN4461
# B9: H4H18446P2 (antibody, human IgG4, V domains shown)
# VH: EVQLVESGGGLVQPGGSLRLSCAASGFTFSNYGMTWVRQAPGKGLEWVSAITGGGGSTYYSNSVKGRFTISRDNSKNTVYLRMNSVRAEDTAVYYCAKYKWNFVDDWGQGTTVTVSS
# VL: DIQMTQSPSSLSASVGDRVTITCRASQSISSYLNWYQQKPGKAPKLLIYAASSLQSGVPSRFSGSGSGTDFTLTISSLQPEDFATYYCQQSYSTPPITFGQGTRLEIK
# notes: human IgG4 Fc
# Target: T8, human LEPR extracellular domain expressed with a C-terminal myc-myc-hexahistidine tag (hLEPR.mmh) (human, UniProt P48357 22-839)
# T8 construct: tag included in the entry; also called human LEPR-MMH; monomeric human LEPR
# Assay: Luminex, myc-captured protein on beads
# Experimental: (§1) Aliquots of microspheres with immobilized anti-myc monoclonal antibodies, prepared as described above, were added individually to 1 mL of the each of these protein supernatants. The microspheres were gently mixed, incubated for two hours at 25° C., washed twice with 1 mL of DBPS, centrifuged to remove the supernatant and finally resuspended in 1 mL of DPBS buffer. […] of anti-myc IgG coupled microspheres from individual reactions with full length human LEPR and with each of the human LEPR domain proteins were withdrawn and mixed together in 3.6 mL of PBS+20 mg/mL BSA+0.05% sodium azide (blocking buffer).
# (§2) From this mixed pool, 75 μL of microspheres were plated per well on a 96 well filter plate (Millipore, Cat. No: MSBVN1250) and mixed with 25 μL of individual anti-human LEPR monoclonal antibodies (0.5 or 5 μg/mL), incubated for two hours at 25° C. and then washed twice with 200 μL of DPBS with 0.05% Tween 20 (washing buffer). […] After 30 minutes, the samples were washed twice with 200 µL of washing buffer and resuspended in 150 μL of wash buffer. The Median Fluorescence intensity (MFI) of the microspheres was measured in a Luminex Analyzer.
row,Binder,Luminex MFI [MFI]
1,B1,6570
2,B2,7980
3,B3,6250
4,B4,4890
5,B5,7600
6,B6,7510
7,B7,4700
8,B8,3300
9,B9,10500

# Target: T1, human LEPR Ig-CRH2-FNIII-MMH
# Assay: Luminex, myc-captured protein on beads
# Experimental: as §1, §2
row,Binder,Luminex MFI [MFI]
1,B1,14500
2,B2,43
3,B4,37
4,B5,110
5,B6,42
6,B7,14
7,B8,8
8,B9,16900

# Target: T2, human LEPR CRH1 (D1,D2)-MMH
# Assay: Luminex, myc-captured protein on beads
# Experimental: as §1, §2
row,Binder,Luminex MFI [MFI]
1,B1,30
2,B2,2930
3,B3,18900
4,B4,16000
5,B5,4720
6,B6,4390
7,B7,2650
8,B8,1250
9,B9,682

# Target: T3, human LEPR Ig (D3)-MMH
# Assay: Luminex, myc-captured protein on beads
# Experimental: as §1, §2
row,Binder,Luminex MFI [MFI]
1,B1,19
2,B2,24
3,B3,30
4,B4,17
5,B5,10
6,B6,14
7,B7,7
8,B8,8
9,B9,25

# Target: T4, human LEPR FNIII-MMH
# Assay: Luminex, myc-captured protein on beads
# Experimental: as §1, §2
row,Binder,Luminex MFI [MFI]
1,B1,230
2,B2,13
3,B3,25
4,B4,14
5,B5,6
6,B6,10
7,B7,40
8,B8,20
9,B9,32

# Target: T5, human LEPR CRH1-Ig (D2,D3)-MMH
# Assay: Luminex, myc-captured protein on beads
# Experimental: as §1, §2
row,Binder,Luminex MFI [MFI]
1,B1,40
2,B2,42
3,B3,8880
4,B4,5500
5,B5,74
6,B6,34
7,B7,15
8,B8,14

# Target: T6, human LEPR CRH1 (D1)-MMH
# Assay: Luminex, myc-captured protein on beads
# Experimental: as §1, §2
row,Binder,Luminex MFI [MFI]
1,B1,12
2,B2,20
3,B3,13
4,B4,10
5,B5,8
6,B6,12
7,B7,9
8,B8,8
9,B9,17

# Target: T7, human LEPR CRH2-MMH
# Assay: Luminex, myc-captured protein on beads
# Experimental: as §1, §2
row,Binder,Luminex MFI [MFI]
1,B1,17
2,B2,15
3,B4,39
4,B5,16
5,B6,33
6,B7,116
7,B8,91
8,B9,65
